Assay results: patent publication US20240368668A1, “SUBSTRATES AND BIOMARKERS OF ADAMTS7” (The Broad Institute, Inc., priority 2021, published 2024)
Square brackets hold non-standard residues; d marks the D form. Ends that are not written are not given here.

Molecular target: T1, mouse ADAMTS7 (Mus musculus, UniProt Q68SA9, E373Q)
T1 construct: Full-length mouse Adamts7 1-1857 (Uniprot Q68SA9, WT or E373Q catalytic mutant); expressed in transfected cells; host or cells: Human Coronary Artery Smooth Muscle Cells (HCA-SMC, Lonza), adenovirus 50 MOI
T1 sequence (Q68SA9 221-1657 E373Q): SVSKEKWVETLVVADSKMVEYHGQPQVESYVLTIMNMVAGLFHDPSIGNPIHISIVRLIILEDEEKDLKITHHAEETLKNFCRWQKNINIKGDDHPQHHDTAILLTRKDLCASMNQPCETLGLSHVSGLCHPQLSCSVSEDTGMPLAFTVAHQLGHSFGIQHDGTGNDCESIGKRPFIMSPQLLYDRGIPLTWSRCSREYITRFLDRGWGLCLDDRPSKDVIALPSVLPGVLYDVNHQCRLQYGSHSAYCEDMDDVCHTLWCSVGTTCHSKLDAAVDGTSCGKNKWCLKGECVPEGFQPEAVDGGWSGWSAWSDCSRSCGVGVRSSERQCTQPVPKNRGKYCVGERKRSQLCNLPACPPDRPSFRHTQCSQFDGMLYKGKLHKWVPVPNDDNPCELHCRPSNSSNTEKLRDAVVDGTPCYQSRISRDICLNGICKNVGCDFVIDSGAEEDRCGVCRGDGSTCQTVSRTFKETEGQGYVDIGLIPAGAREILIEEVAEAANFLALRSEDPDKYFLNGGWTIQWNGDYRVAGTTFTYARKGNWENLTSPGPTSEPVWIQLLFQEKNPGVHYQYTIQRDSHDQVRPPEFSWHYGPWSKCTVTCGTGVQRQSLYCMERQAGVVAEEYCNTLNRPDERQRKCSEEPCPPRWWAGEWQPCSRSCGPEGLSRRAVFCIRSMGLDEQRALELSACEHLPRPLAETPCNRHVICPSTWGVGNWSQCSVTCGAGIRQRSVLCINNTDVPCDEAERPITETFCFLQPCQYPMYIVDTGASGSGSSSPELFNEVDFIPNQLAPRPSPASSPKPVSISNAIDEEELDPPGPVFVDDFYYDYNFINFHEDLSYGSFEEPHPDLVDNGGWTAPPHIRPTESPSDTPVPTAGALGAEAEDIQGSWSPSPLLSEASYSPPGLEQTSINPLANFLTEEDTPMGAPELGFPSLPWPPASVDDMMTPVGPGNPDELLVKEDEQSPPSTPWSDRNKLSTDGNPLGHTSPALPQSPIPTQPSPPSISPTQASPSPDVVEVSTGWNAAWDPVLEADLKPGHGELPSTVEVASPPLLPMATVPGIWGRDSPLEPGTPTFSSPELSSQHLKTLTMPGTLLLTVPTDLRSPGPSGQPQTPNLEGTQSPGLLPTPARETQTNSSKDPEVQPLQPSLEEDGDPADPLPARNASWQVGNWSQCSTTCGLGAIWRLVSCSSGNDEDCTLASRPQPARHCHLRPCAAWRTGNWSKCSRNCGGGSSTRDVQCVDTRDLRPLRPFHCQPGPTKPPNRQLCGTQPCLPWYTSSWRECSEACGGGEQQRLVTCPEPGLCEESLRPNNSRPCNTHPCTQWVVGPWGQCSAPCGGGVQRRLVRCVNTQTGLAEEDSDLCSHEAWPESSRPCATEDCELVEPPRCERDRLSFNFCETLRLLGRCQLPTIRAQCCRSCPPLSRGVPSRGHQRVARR
Assay: TMT10 TAILS N-terminomics, SMC2 experiment (process replicates, trypsin/AspN digest)
Type: cell-based
Details: SMC2_TAILS HC
Source text: ADAMTS7 Expression, Cell Culture and Preparation of the Secreted Proteins—Full-length mouse Adamts7 1-1857 (Uniprot Q68SA9, WT or E373Q catalytic mutant) with a carboxyl terminal 3xFLAG tag was used to generate custom adenoviruses as previously described. Adeno-CMV-Luciferase (Ad-Luc) from Vector Biolabs was used as a negative control. Human Coronary Artery Smooth Muscle Cells (HCA-SMC) were obtained from Lonza and expanded in Lonza SmGM-2 media in 15 cm tissue culture plates. Twenty-four hours before media collection, near confluent plates were transduced with 50 MOI adenovirus and switched to Lonza Basal SM media with volumes of 20 ml per 15 cm plate. Expression of the Flag tagged ADAMTS7 was confirmed from the media using western blot and detected using the anti-Flag M2-HRP antibody (Sigma, A8592). Collected media was processed by adding protease inhibitors (1 mM EDTA and 1 mM PMSF) and clarified by 500 g×5 min spin at 4 C to pellet cell debris. Cell media supernatants were then passed through a 0.22 um filter and kept chilled. Processed media was then concentrated 50-100× using 3 kDa Centricon Plus-70 filter unit, spun at 3,500 g×60 min at 4 C. Approximately 10% of the processed, concentrated media was set aside for total secretome proteolytic analysis. The remaining 90% of the processed, concentrated media was buffer exchanged into 50 mM HEPES pH 8.0, 150 mM NaCl (2×50 ml) using the 3 kDa Centricon Plus-70 filter unit and concentrated to >2 mg/ml to serve as input for the TAILS experiment. Secretome and TAILS input samples were stored at −80° C.
For the first experiment, referred to as SMC1, 120 ml of media from 6×15 cm dishes was pooled from each condition (Luc, WT, EQ) and processed to produce three separate inputs for the TAILS experiment. Luc, WT and EQ inputs from the SMC1 experiment were each divided into triplicate 400 ug samples to generate technical replicate TAILS data. For the second experiment, referred to as SMC2, media was processed separately in triplicate for each condition (Luc1, Luc2, Luc3, WT1, WT2, WT3, EQ1, EQ2, EQ3) using 60 ml of media from 3×15 cm dishes for each process replicate. Inputs from the SMC2 experiment used process replicates of 300 ug each to generate TAILS data. The third experiment used input from cultured Human umbilical vein endothelial cells (HUVEC) from Lifeline Cell Technology grown in VascuLife Media and transduced in Lifeline Basal EC (+bFGF2 10 ng/ml). The HUVEC experiment used the same strategy as the SMC2 experiment, with 40 ml of media from 2×15 cm dishes for each process replicate and used 200 ug each to generate TAILS data. Inputs for process replicate experiments were restricted to the lowest concentration from the 9 parallel samples for SMC2 or HUVEC.
TMT10 isotopic labeling and negative selection of non-labeled peptides-Sample preparation was performed based on the TAILS protocol from the Overall lab with some modifications. From a single experiment, nine parallel protein samples in 50 mM HEPES pH 8.0, 150 mM NaCl were separately denatured with guanidinium chloride (Sigma, G4505) to reach a final concentration of 2.5M guanidinium chloride and 250 mM HEPES and incubated at 65° C. for 15 min. Reduction was achieved through addition of tris(2-carboxylethyl) phosphine (TCEP) at a final concentration of […] and incubated at 65° C. for 45 min. Alkylation reaction was performed with addition of iodoacetamide (IAA, Sigma, A3221) to a final concentration of 10 mM IAA for 15 min at room temperature in the dark. Following denaturation, reduction and alkylation steps, ten percent of each of the nine parallel protein samples was removed and combined to serve as a pooled reference. Isobaric tags were added to free amine groups using the TMT10plex Isobaric Mass Tagging Kit (ThermoFisher, 90113) with TMT channels randomly assigned to the nine samples and TMT 131 assigned to the pooled reference. […]

[1] = log fold change of N-terminal peptide, Ad-mADAMTS7 EQ over Luc

logFC.mEQ.over.Luc (log fold change, mEQ over Luc) | logFC.mEQ.over.Luc [1] | Substance
−0.27 | – | AEBP1_37 (FLEGFLSELEPEPR; listed as Homo sapiens)
−0.13 | – | CCDC80_66 (LEEPNLQPLQR; listed as Homo sapiens)
−0.46 | – | EFEMP1_124 (AVAGPEMQTGR; listed as Homo sapiens)
−0.99 | – | EFEMP1_125 (VAGPEMQTGR; listed as Homo sapiens)
−0.27 | – | FBLN2_259 (ALGPPAPVQAKAR; listed as Homo sapiens)
−0.44 | – | FBLN2_260 (LGPPAPVQAKAR; listed as Homo sapiens)
−0.24 | – | FBN1_29 (LEAGNVKETR; listed as Homo sapiens)
−0.25 | – | FBN1_53 (LKGPNVCGSR; listed as Homo sapiens)
−1.35 | – | FLNA_1285 (LTQTGGPHVKAR; listed as Homo sapiens)
−0.11 | – | FN1_36 (MVQPQSPVAVSQSKPGCYDNGKHYQINQQWER; listed as Homo sapiens)
−0.06 | – | FN1_40 (QSPVAVSQSKPGCYDNGKHYQINQQWER; listed as Homo sapiens)
−0.49 | – | FN1_1143 (LTPGVEYVYTIQVLR; listed as Homo sapiens)
−0.65 | – | FN1_1656 (SSSPVTGYR; listed as Homo sapiens)
0.18 | – | GSN_413 (HIANVER; listed as Homo sapiens)
−0.36 | – | HSPG2_275 (LLPGSVR; listed as Homo sapiens)
−0.19 | – | HSPG2_2331 (ANLAYPAGSTQPIR; listed as Homo sapiens)
−0.22 | – | HSPG2_2333 (LAYPAGSTQPIR; listed as Homo sapiens)
−0.31 | – | IGFBP3_31 (SAGLGPVVR; listed as Homo sapiens)
−0.51 | – | IGFBP3_32 (AGLGPVVR; listed as Homo sapiens)
−0.04 | – | IGFBP7_101 (AAGGPGVSGVCVCKSR; listed as Homo sapiens)
– | 0.09 | LOXL1_219 (VASAGVIYPYQPR; listed as Homo sapiens)
– | −0.03 | LOXL2_37 (FQQPAPEYHQPQAPANVAKIQLR; listed as Homo sapiens)
– | 0.06 | LOXL2_38 ([code q]QPAPEYHQPQAPANVAKIQLR; not fully specified; listed as Homo sapiens)
−0.08 | – | LOX_58 (LSLGSQYQPQR; listed as Homo sapiens)
0.00 | – | LOX_123 (HWFQAGYSTSR; listed as Homo sapiens)
−0.11 | – | LOX_124 (WFQAGYSTSR; listed as Homo sapiens)
−0.26 | – | LOX_126 (QAGYSTSR; listed as Homo sapiens)
– | 0.29 | LTBP1_393 (LTATNFR; listed as Homo sapiens)
– | 0.05 | LTBP1_540 (HQQVIPHVYPVAAKTQLGR; listed as Homo sapiens)
